Experimental findings from patent US10987431B2, “Preparation method of adiposomes, and use thereof” (Institute Of Biophysics, Chinese Academy Of Sciences, priority 2015, dated 2021) are described below.

Assay [1] relates to adiposome a. Nature of the assay: Recruitment of resident proteins, functional proteins and apolipoprotein to adiposomes (SDS-PAGE, silver staining). The assay is classed as binding. On the procedure: a1, 5 μg SMT3-Perilipin-2 proteins, 25 ng Ulp1 and 500 adiposome a prepared in Example 1 were mixed to obtain 1000 mixed system.
a2, After the step a1 was completed, a mixed system was obtained by incubating at room temperature for 1 h (the practical operation may be performed on ice).
a3, After the step a2 was completed, the mixed system was taken to centrifuge at 20000 g for 5 min, and the liquid phase system presented two layers (the upper layer was adiposomes). The lower solution was drawn out and the upper layer was kept.
a4, The upper layer after the step a3 was resuspended into 1000 buffer B and centrifuged at 20000 g for 5 min, and the liquid phase system presented two layers (the upper layer was adiposomes). The lower solution was drawn out and the upper layer was kept.
a5, The upper layer after the step a4 was resuspended into 1000 buffer B and centrifuged at 20000 g for 5 min, and the liquid phase system presented two layers. The lower solution was drawn out and the upper layer was kept (i.e., adiposomes).
5 μg SMT3-Perilipin-2 proteins, adiposomes obtained in the step a5 and the lower solution drawn in the step a3 were all subjected to SDS-PAGE, followed by silver staining detection.
b1, 5 μg MLDS proteins and 50 μl adiposome a prepared in Example 1 were mixed to obtain 1000 mixed system.
b2, After the step b1 was completed, a mixed system was obtained by incubating at room temperature for 1 h (the practical operation may be performed on ice).
b3, After the step b2 was completed, the mixed system was taken to centrifuge at 20000 g for 5 min, and the liquid phase system presented two layers (the upper layer was adiposomes). The lower solution was drawn out and the upper layer was kept.
b4, The upper layer after the step b3 was resuspended into 1000 buffer B and centrifuged at 20000 g for 5 min, and the liquid phase system presented two layers (the upper layer was adiposomes). The lower solution was drawn out and the upper layer was kept.
b5, The upper layer after the step b4 was resuspended into 1000 buffer B and centrifuged at 20000 g for 5 min, and the liquid phase system presented two layers. The lower solution was drawn out and the upper layer was kept (i.e., adiposomes).
5 μg MLDS proteins, adiposomes obtained in the step b5 and the lower solution drawn in the step b3 were all subjected to SDS-PAGE, followed by silver staining detection.
The MLDS proteins in the step (2) were replaced with MDT-28 proteins, without other changes in other steps. The results were seen from lanes 4, 5 and 6 in FIG. 6 (lane 4 was total proteins (MDT-28 proteins), lane 5 was adiposome recruited proteins, and lane 6 was solution proteins). […] The adiposomes recruited with MDT-28 proteins were named as artificial lipid droplet MDT-28.
The MLDS proteins in the step (2) were replaced with Bovine serum albumin, without other changes in other steps. The results were seen from lanes 11, 12 and 13 in FIG. 6 (lane 11 was total proteins (Bovine serum albumin), lane 12 was adiposome recruited proteins, and lane 13 was solution proteins).
SMT3-Perilipin-2 proteins in the (1) of step 1 were replaced with SMT3-ATGL proteins, and 50 μl adiposome a was replaced with 30 μl adiposome a, without other changes in other steps, to obtain adiposomes recruited with ATGL.
5 μg MLDS proteins in the (2) of step 1 were replaced with 9 μg Apo A-I, without other changes in other steps, to obtain adiposomes recruited with Apo A-I. The results were seen from B in FIG. 10 (lane 1 was adiposome recruited proteins, lane 2 was solution proteins, and lane 3 was total proteins (Apo A-I)). […] The adiposome recruited with Apo A-I was named as artificial lipoprotein Apo A-I.

In assay [2] the test system is adiposome a. Nature of the assay: Determination of protein saturation degree on adiposomes. As to conditions: Western blot. The assay is classed as binding. On the procedure: Determination of protein saturation degree: SMT3-Perilipin-2 proteins, 25 ng Ulp1 and 30 μl adiposome a prepared in Example 1 were mixed to obtain 50 μl mixed system, and the concentrations of SMT3-Perilipin-2 proteins in the mixed system were 0.015 μg/μl, 0.030 μg/μl, 0.056 μg/μl, 0.080 μg/μl, 0.101 μg/μl, 0.137 μg/μl, 0.166 μg/μl or 0.191 μg/μl. Then, artificial lipid droplets were obtained according to the above steps a2 to a5, and were subjected to SDS-PAGE, followed by staining with colloid blue, or were subjected to Western blot detection using Perilipin-2 antibody as primary antibody. The results were seen from C in FIG. 7 (in which a was the result of colloid blue staining, b was the result of Western blot detection).
Determination of protein saturation degree: SMT3-ATGL proteins, and 500 adiposome a prepared in Example 1 were mixed to obtain 1000 mixed system, and the concentrations of SMT3-ATGL proteins in the mixed system were 0.091 μg/μl, 0.132 μg/μl, 0.171 μg/μl, 0.209 μg/μl, 0.244 μg/μl, 0.278 μg/μl or 0.310 μg/μl. Then artificial lipid droplets were obtained according to the a2 to a5 of step 1, and were subjected to SDS-PAGE, followed by silver staining, or were subjected to Western blot detection using ATGL antibody (Cell Signaling Technology, Danvers, Mass., the product item: 2138) as primary antibody. […]
(In general: In western blotting, separated proteins are transferred to a membrane and probed.)

Where [3] appears, read: incubating at room temperature for 1 h, SDS-PAGE, silver staining.

“Apo A-I: apolipoprotein A1 from human, purified per Peitsch et al. 1989”: the “proteins recruited to adiposome a” value in the assay on adiposome a [1] (setting [3]) was “about 50%”.
For the molecule “Bovine serum albumin: purchased from Sigma, product item A4612; control protein [reference compound]”, the “recruitment to adiposome a (in words)” value in the assay on adiposome a [1] (setting [3]) is reported as “no Bovine serum albumin was recruited”.

B1: MLDS proteins: lipid droplet resident protein of oleaginous bacterium RHA1, SEQ ID NO: 2 (protein)
chain: MTDQKTIDSVKTSLYAAVGAGDVVVQAVADVVAQVRSRAESTQGDVEERVGGAKERIAGLQEEVTEGVENLRDRLAGLPSELPEELAELREKFTADELRKVAEAYLKVASDLYTSLAERGEDTVERIRKQPVVEEGIGRAETAFGDAVELTEEALGTVARQTRAVGEQAAKLAGRASGRISDTAEGLGEAIADAGDEAALKVLDLGDQAEEASKDAADRVTATAADVQARADKAAPAKHAAPAKKAAPAKAAATPAPAPAKKAAAPAKKAAPAKKA
modifications: MLDS protein
In the case of B1, the “proteins recruited to adiposome a” value in the assay on adiposome a [1] (setting [3]) is reported as “about 80%”.

B2: MDT-28 proteins: nematode lipid droplet resident protein, SEQ ID NO: 4 (protein)
chain: MTDVEQPVSVEDQQAQAQSYYDQVLGNAYVQTAINAYTKTKEFHPLLNSTLNSAEEKVSTVGNYAAQKAYDGYNSYYVKPKNTAYEAVSYGTERAKTAVESGKQAAIVGGTFGIGAAVVLTQFSLALSAGGAALVLEQVDSAKKLGSSAISTIKEAELAVEHRIFSALHQAQRIAMVPVEKITENTNSLLDILDGAVQKGLNIEVPPSVNLTIGQRVKNLASLIVQGVSNKLFKAHDHVIDPINERARNYLEQLSQSFVLLDIVREKKTWVIEKSNELSTSVFDFKKTLEEEAQKYKVAPEEMLMKHIQSTSEQLSTQLQSLREKGQNVFGDGTKIDSTIDYLENLKKNFTDAEDVYKVRDEVLNEGRQRIAELSTWTTSLLIISAEWQFEPEDLLIEELYFDAPPPVRTRNLYRNRA
modifications: MDT-28 protein
In the case of B2, the “proteins recruited to adiposome a” value in the assay on adiposome a [1] (setting [3]) is “about 90%”.

B3: ATGL: functional protein adipose triacylglycerol lipase, SEQ ID NO: 8 (protein)
chain: MFPREKTWNISFAGCGFLGVYYVGVASCLREHAPFLVANATHIYGASAGALTATALVTGVCLGEAGAKFIEVSKEARKRFLGPLHPSFNLVKIIRSFLLKVLPADSHEHASGRLGISLTRVSDGENVIISHFNSKDELIQANVCSGFIPVYCGLIPPSLQGVRYVDGGISDNLPLYELKNTITVSPFSGESDICPQDSSTNIHELRVTNTSIQFNLRNLYRLSKALFPPEPLVLREMCKQGYRDGLRFLQRNGLLNRPNPLLALPPARPHGPEDKDQAVESAQAEDYSQLPGEDHILEHLPARLNEALLEACVEPTDLLTTLSNMLPVRLATAMMVPYTLPLESALSFTIRLLEWLPDVPEDIRWMKEQTGSICQYLVMRAKRKLGRHLPSRLPEQVELRRVQSLPSVPLSCAAYREALPGWMRNNLSLGDALAKWEECQRQLLLGLFCTNVAFPPEALRMRAPADPAPAPADPASPQHQLAGPAPLLSTPAPEARPVIGALGL
modifications: ATGL protein
Take B3: the “protein concentration in the reaction system at which recruitment on adiposomes reached saturation” value in the assay on adiposome a [2] (0.091-0.310 μg/μl SMT3-ATGL proteins, silver staining) came out at 0.209 µg/µL. Also, the “fraction of protein recruited to adiposome a” value in the assay on adiposome a [1] (SMT3-ATGL proteins, 30 μl adiposome a, incubating at normal temperature or 4° C.) was “about ⅓”.

B4: Perilipin-2 proteins: lipid droplet resident protein of mammals, SEQ ID NO: 6, expressed with SMT3 tag cleaved by Ulp1 (protein)
chain: MASVAVDPQPSVVTRVVNLPLVSSTYDLMSSAYLSTKDQYPYLKSVCEMAENGVKTITSVAMTSALPIIQKLEPQIAVANTYACKGLDRIEERLPILNQPSTQIVANAKGAVTGAKDAVTTTVTGAKDSVASTITGVMDKTKGAVTGSVEKTKSVVSGSINTVLGSRMMQLVSSGVENALTKSELLVEQYLPLTEEELEKEAKKVEGFDLVQKPSYYVRLGSLSTKLHSRAYQQALSRVKEAKQKSQQTISQLHSTVHLIEFARKNVYSANQKIQDAQDKLYLSWVEWKRSIGYDDTDESHCAEHIESRTLAIARNLTQQLQTTCHTLLSNIQGVPQNIQDQAKHMGVMAGDIYSVFRNAASFKEVSDSLLTSSKGQLQKMKESLDDVMDYLVNNTPLNWLVGPFYPQLTESQNAQDQGAEMDKSSQETQRSEHKTH
modifications: Perilipin-2 protein
On to B4, for which the “recruitment on adiposomes, saturation (in words)” value in the assay with adiposome a [2] (0.015-0.191 μg/μl SMT3-Perilipin-2 proteins, colloid blue staining) is given as “saturable”. Moreover, the “proteins recruited to adiposome a” value in the assay with adiposome a [1] (setting [3]) is “about 50%”.
